The numbers were not newly measured in publication PMC11507603, which cites them from elsewhere.

For the data set, the target named is Ubiquitin (UniProt P0CG48). In words: SPR.

Epsin Ent1 ENTH, sequence (Q12518 8-146): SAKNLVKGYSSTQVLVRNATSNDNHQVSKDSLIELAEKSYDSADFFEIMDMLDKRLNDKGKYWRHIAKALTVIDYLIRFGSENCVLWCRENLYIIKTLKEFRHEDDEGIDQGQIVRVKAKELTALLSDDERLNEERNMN

Consider Epsin Ent1 ENTH (from UniProt Q12518), for which the Kd is 2300 µM.
